Laboratory results from patent EP4714971A1 (Shanghai Hansoh Biomedical Co., Ltd., dated 2024).
Like-named read-outs stand apart in the source and are kept apart here.

T1: human SEZ6 expressed on stably transfected CHO-K1 cells (human, UniProt Q53EL9 20-994)
T1 construct: also called CHO-SEZ6; hSEZ6
T1 sequence: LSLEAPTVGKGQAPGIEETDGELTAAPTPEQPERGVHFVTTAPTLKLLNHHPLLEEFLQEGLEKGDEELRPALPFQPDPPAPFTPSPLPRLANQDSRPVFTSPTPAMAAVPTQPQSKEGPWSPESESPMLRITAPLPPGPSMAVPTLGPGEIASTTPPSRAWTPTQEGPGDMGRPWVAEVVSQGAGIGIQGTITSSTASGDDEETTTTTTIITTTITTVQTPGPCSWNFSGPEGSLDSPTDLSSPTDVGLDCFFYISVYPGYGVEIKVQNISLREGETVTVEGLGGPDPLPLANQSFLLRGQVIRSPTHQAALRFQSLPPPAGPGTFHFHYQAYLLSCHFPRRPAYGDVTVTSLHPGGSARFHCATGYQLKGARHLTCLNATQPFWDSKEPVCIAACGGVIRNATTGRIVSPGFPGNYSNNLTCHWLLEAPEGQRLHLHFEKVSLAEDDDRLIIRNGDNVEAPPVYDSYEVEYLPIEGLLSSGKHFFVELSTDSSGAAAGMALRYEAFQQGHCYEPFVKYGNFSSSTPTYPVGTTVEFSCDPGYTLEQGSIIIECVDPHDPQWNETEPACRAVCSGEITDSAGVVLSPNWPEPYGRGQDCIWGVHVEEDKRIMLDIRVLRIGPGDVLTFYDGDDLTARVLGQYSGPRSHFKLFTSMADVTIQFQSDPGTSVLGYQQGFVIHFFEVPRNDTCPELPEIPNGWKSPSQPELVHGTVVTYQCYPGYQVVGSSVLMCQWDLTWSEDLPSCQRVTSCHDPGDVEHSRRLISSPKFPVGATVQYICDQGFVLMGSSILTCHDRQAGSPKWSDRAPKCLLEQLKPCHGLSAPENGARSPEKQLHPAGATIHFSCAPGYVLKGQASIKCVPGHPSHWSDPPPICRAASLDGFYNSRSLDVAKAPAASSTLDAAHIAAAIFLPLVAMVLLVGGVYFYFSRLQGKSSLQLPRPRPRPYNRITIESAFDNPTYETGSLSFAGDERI

T2: cynomolgus monkey SEZ6 expressed on stably transfected CHO-K1 cells (cynomolgus monkey, UniProt Q53EL9 20-994 (human entry))
T2 construct: also called CHO-cynoSEZ6; monkey SEZ6 on the cell membrane
T2 chain: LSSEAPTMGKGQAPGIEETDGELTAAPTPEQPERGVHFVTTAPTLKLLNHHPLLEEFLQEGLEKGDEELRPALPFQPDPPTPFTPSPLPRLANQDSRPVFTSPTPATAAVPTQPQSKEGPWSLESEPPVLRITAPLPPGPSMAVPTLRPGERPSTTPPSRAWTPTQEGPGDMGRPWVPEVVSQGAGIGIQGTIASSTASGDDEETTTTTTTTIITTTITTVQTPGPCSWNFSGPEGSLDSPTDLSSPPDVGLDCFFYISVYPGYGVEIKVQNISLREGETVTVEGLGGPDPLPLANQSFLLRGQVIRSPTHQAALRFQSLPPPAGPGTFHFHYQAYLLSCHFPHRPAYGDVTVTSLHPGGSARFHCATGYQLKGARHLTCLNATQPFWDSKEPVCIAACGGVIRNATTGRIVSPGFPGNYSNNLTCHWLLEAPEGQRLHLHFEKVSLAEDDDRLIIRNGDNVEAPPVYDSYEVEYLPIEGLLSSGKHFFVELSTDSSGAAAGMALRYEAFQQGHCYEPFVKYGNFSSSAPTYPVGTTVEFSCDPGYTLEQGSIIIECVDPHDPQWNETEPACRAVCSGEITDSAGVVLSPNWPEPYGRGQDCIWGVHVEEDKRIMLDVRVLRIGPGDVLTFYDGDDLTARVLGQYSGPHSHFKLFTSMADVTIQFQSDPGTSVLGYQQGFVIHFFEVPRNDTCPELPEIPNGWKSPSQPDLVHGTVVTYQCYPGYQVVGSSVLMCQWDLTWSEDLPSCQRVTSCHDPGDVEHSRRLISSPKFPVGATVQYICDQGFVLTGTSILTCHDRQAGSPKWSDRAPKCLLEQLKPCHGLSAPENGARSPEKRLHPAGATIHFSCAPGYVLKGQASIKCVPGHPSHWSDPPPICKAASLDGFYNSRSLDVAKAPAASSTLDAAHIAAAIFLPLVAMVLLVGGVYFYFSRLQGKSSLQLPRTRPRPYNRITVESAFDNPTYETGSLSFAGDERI


Columns and labels:
[1] = biological target: T1, human SEZ6 expressed on stably …; experiment: flow cytometry on CHO-K1 cells expressing human SEZ6
[2] = biological target: T2, cynomolgus monkey SEZ6 expressed on …; experiment: flow cytometry on CHO-K1 cells expressing cynomolgus monkey SEZ6
[3] = biological target: T1, human SEZ6 expressed on stably …; experiment: flow cytometry on CHO-K1 cells expressing human SEZ6; remark: listed apart in the source
[4] = biological target: T1, human SEZ6 expressed on stably …; experiment: as above; remark: listed apart in the source

Row | EC50 [1] [nM] | MFImax [1] | EC50 [2] [nM] | MFImax [2] | EC50 [3] [nM] | MFImax [3] | EC50 [4] [nM] | MFImax [4] | Binder
1 | 0.85 | 3030 | 0.65 | 13400 |  |  |  |  | cAb3014 (antibody, V domains shown) VH: QVQLQQPGAELVKPGASVKLSCKASGYTFSIYWMHWVKQRPGQGLEWIGMIHPNSGSTNYNEKFKSKATLTVDKSSSTAYMQLSSLTSEDSAVYYCARGGNYVAMDYWGQGTSVTVSS VL: QIVLTQSPAIMSASLGERVTMTCTASSSVSSSYLHWYQQKPGSSPKLWIYSTSNLASGVPARFSGSGSGTSYSLTISSMEAEDAATYYCHQYHRSLTFGSGTKLEIK
2 | 0.35 | 4830 | 0.41 | 15000 |  |  |  |  | cAb3006 (antibody, V domains shown) VH: QVQLQQSGAELARPGASVTLSCKASGYTFTDYEMHWVKETPVDGLEWIGGIDPETDNTVYNQKFKVKAILTEDKSSRIAYMELRSLTSEDSAVYYCTRGDWYFDVWGTGTTVTVSS VL: DIVMSQSPSSQAVSVGEKVTMSCKSSQSLLNSRTRENYLAWYQQKAGQSPKLLIYWASTRDSGVPDRFTGSGSGTDFTLTINSVQAEDLAVYYCKQSYNLFTFGSGTKLEIK
3 | 0.68 | 5110 | 0.42 | 14300 |  |  |  |  | cAb3003 (antibody, V domains shown) VH: QVQLQQSGAELVRPGASVTLSCKASGYTFTGYEMHWVKQTPVHGLEWIGGIDPETDNTVYNQKFKGKAILTEDKSSSTAYMELRRLTSEDSAVYYCTRGDWYFDIWGTGTTVTVSS VL: DIVLSQSPSSQAVSVGEKVTMSCKSSQSLLNSRTRENYLAWYQQKPGQSPKLLIYWASTRESGVPDRFTGSGSGTDFTLTISSVQAEDLAVYYCQQSYNLFTFGSGTILEIK
4 | 0.52 | 4920 | 0.41 | 14700 |  |  |  |  | cAb3005 (antibody, V domains shown) VH: QVQLQQSGAELARPGASVTLSCKASGYKFTDYEMHWVKETPVNGLEWIGGIDPETENTVYNQKFKVKAILTEDKSSRTAYMELRSLTSEDSAVYYCTRGDWYFDVWGTGTTVTVSS VL: DIVMSQSPSSQAVSVGEKVTMSCKSSQSLLNSRTRENYLAWYQQKAGQSPKLLIYWASTRDSGVPDRFTGSGSGTAFTLTINSVQAEDLAVYYCKQSYNLFTFGSGTKLEIK
5 | 0.81 | 5420 | 0.43 | 15600 |  |  |  |  | cAb3009 (antibody, V domains shown) VH: QVQLQQSGAELVRPGASVTLSCKASGYTFTDYEMHWVRQTPVHGLEWIGGIDPESDNTVYNQKFKGKVTLTEDKSSSTAYMEFRSLTSEDSAVYYCTRGDWYFDVWGTGTTVTVSS VL: DIVMSQSPSSQAVSVGEKVTMTCKSSQSLLNSRTRENYLAWYQQKPGQSPKLLIYWASTRESGVPDRFTGSGSGADFTLTISSVQAEDLAVYYCGQSYNLFTFGSGTKLEIK
6 | 0.42 | 5180 | 0.54 | 15200 |  |  |  |  | cAb3031 (antibody, V domains shown) VH: DVQLQESGPGLVKPSQSLSLTCSVTGQSITSGYFWNWIRQLPGNKLEWMGHIRYDGNNNYNPSLKNRVSITRDTSKNQFFLKLNSVTTEDTATYYCARWLLRYYAMDSWGQGTSVTVSS VL: not shown
7 |  |  |  |  | 0.45 | 1020 |  |  | PR3121 (antibody, human IgG1, kappa, V domains shown, Humanized, human IgG1, kappa; also called humanized antibody of cAb3014) VH: EVQLVQSGAEVKKPGSSVKVSCKASGYTFSIYWMHWVRQAPGQGLEWIGMIHPNSGSTNYNEKFKSRATLTVDKSTSTAYMELSSLRSEDTAVYYCARGGNYVAMDYWGQGTLVTVSS VL: DIQMTQSPSSLSASVGDRVTITCTASSSVSSSYLHWYQQKPGKAPKLLIYSTSNLASGVPSRFSGSGSGTDFTLTISSLQPEDFATYYCHQYHRSLTFGGGTKVEIKR
8 |  |  |  |  | 0.56 | 966 |  |  | PR3123 (antibody, human IgG1, kappa, V domains shown, Humanized, human IgG1, kappa; Only the order of listing separates it from PR3121; also called humanized antibody of cAb3014) VH: EVQLVQSGAEVKKPGSSVKVSCKASGYTFSIYWMHWVRQAPGQGLEWIGMIHPNSGSTNYNEKFKSRATLTVDKSTSTAYMELSSLRSEDTAVYYCARGGNYVAMDYWGQGTLVTVSS VL: DIQLTQSPSSLSASVGDRVTMTCTASSSVSSSYLHWYQQKPGKSPKLWIYSTSNLASGVPSRFSGSGSGTDYTLTISSLQPEDFATYYCHQYHRSLTFGGGTKVEIKR
9 |  |  |  |  | 1.72 | 1210 |  |  | PR3132 (antibody, human IgG1, kappa, V domains shown, Humanized, human IgG1, kappa; also called humanized antibody of cAb3056) VH: EVQLVQSGAEVKKPGASVKISCKASGYTFTDYYINWMRQAPGQGLEWIGWIFPGSDNPYYNEMFKDRVTVTVDKSTSTVYMELSSLRSEDTAVYFCARGRYYGLYTMDYWGQGTLVTVSS VL: DIQMTQSPSSLSASVGDRVTITCRASQDIRNYLNWYQQKPGKAPKFLIYYTSRLHSGVPSRFSGSGSGTDFTLTISSLQPEDFATYYCQQGNTLPWTFGGGTKVEIKR
10 |  |  |  |  |  |  | 0.23 | 6600 | cAb025 (Fc fusion, VHH-hFc expressed in 293 cells; Parent of PR0069; also called chimeric nanobody; camel-derived SEZ6 chimeric antibody; not shown: The human Fc (hFc) of the VHH-hFc construct) VHH: EVQLVESGGGSVQPGGSLRLSCEASGLTYNKDCMAWFRQAPGKEREGVAIINGVGRTRYADSVKGRFTISKDNAKNTLYLQMNNLKPEDTAMYYCAAQRASSSCGSLSRAWYDYWGRGTQVTVSS
11 | 0.42 | 6560 | 0.95 | 14600 |  |  |  |  | cAb3056 (antibody, V domains shown) VH: QVQLQQSGPELMKPGASVKISCKASGYTFTDYYINWMKQRPGQGLEWIGWIFPGSDNPYYNEMFKDKATVSVDKSSSAVFMLLTSLTSEDSAVYFCARGRYYGLYTMDYWGQGTSVTVSS VL: DIQMTQTTSSLSASLGDRVTISCRASQDIRNYLNWYQQKADGTVKFLIYYTSRLHSGVPSRFSGSGSGTDFSLTISNLEQEDVATYFCQQGNTLPWTFGGGTKVEIK
12 | 0.13 | 10100 | 0.37 | 17300 |  |  |  |  | cAb3034 (antibody, V domains shown) VH: QVQLQQSGAELARPGASVKMSCKASGYTFTSYTMHWVKQRPGQGLEWIGYINPRSDYTKYNQKVKDKATLTADKSSSTAYMQLSSLTSEDSAVYYCARGGLGLDYWGQGTTLTVSS VL: DIQMTQSPSSLSASLGERVSLTCRASQEISGYLSWLQQTPDGTIKRLIYAASTLHSGVPKRFSGSRSGSDYSLTISSLESEDFAGYYCLQYASYPYTFGGGTKLEIK
13 | 0.06 | 5180 | 0.48 | 16200 |  |  |  |  | cAb3046 (antibody, V domains shown) VH: QVQLQQSGAELARPGASVKMSCKASGYTFTSYTMHWVKQRPGQGLEWIGYINPSSDYTKYNQKFKGKATMTADKSSSTAYMQLSSLTSEDSAVYYCGRGLVPFAYWGQGTLVTVSA VL: DIQMTQSPSSLSASLGERVSLTCRASQEISGYLIWLQQKPDGTIKRLIYAASTLDSGVPKRVSGSRSGSDYSLTISSLESEDFADYYCLQYASYPLTFGGGTKLELK
14 |  |  |  |  |  |  | 0.38 | 8480 | cAb314 (Fc fusion, VHH-hFc expressed in 293 cells; Parent of PR0071; also called chimeric nanobody; camel-derived SEZ6 chimeric antibody; not shown: The human Fc (hFc) of the VHH-hFc construct) VHH: HVQLVESGGGSVQAGGSLRLSCAVSGFTSSRGWMAWFRQAPGKEREGVAVIGRRSGDIYYADSLKGRFTISHDSTENTLYLQMNNLKPEDTATYYCAVGDQAGHVLTSSPYRYWGQGTQVTVSS
